This note sets out measurements from patent EP1878743A2, “Urotensin-II agonists and antagonists” (The Administrators of The Tulane Educational Fund, priority 2000, dated 2002).

Bridge positions count the residues as written; N and C are the ends. Square brackets hold non-standard residues; d marks the D form. Ends that are not written are not given here. Peptide text beside a SMILES is read from it. dDip = N[C@@H](C(=O)O)C(c1ccccc1)c1ccccc1; Phe(4-Cl) = N[C@@H](Cc1ccc(Cl)cc1)C(=O)O; Phe(4-F) = N[C@@H](Cc1ccc(F)cc1)C(=O)O; 2Nal = N[C@@H](Cc1ccc2ccccc2c1)C(=O)O; 3Pal = N[C@@H](Cc1cccnc1)C(=O)O; Tle = CC(C)(C)[C@H](N)C(=O)O; Nal = naphthylalanine

T1: U-II receptors (rat thoracic aorta tissue) (rat, UniProt P49684 1-386)
T1 sequence (looked up): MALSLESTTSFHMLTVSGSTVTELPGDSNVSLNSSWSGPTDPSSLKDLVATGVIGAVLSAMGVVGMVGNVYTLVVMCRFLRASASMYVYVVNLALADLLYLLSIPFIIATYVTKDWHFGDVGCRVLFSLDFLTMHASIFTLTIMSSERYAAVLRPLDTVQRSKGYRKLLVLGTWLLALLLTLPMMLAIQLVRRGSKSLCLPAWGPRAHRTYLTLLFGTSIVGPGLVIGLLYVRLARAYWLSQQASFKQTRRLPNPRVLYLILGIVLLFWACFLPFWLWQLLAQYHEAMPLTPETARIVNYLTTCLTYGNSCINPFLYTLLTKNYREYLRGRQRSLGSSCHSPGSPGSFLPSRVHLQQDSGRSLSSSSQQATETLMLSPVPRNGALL

T2: U-II receptors (Rattus norvegicus, UniProt P49684)
T2 construct: from tissue; host or cells: rat thoracic aorta (circular strips / rings)
T2 sequence (P49684 1-386): T1 sequence (looked up)

B1: Cpa-D-Cys-Tyr-D-Trp-Lys-Thr-Cys-Nal-NH2 (SEQ ID NO: 9) (peptide)
peptide: XXYXKTCX
modifications: Cpa (p-chlorophenylalanine) at 1; D-Cys at 2; D-Trp at 4; Nal (naphthylalanine) at 8; C-terminal amide

The first assay concerns the target U-II receptors (rat thoracic aorta tissue) (rat) (UniProt P49684). The assay is described as follows: cell-based or functional assay.
Conditions: not given
Consider “Cpa-c[D-Cys-Pal-D-Trp-Lys-Val-Cys]-Cpa-amide (SEQ ID NO: 4) (peptide)”, for which the IC50 against U-II-induced phasic contractions of circular rat thoracic aorta strips amounted to 100 nM.

A further assay addresses T1, U-II receptors (rat thoracic aorta …). Kind of assay: cell-based or functional assay.
Conditions: not given
Take [Phe(4-Cl)][dC]FWKTCV-NH2 (disulfide 2-7 (inferred)) [Cpa-c[D-Cys-Phe-Trp-Lys-Thr-Cys]-Val-NH2 (SEQ ID NO: 5)]: the “IC50 against U-II-induced phasic contractions of circular rat thoracic aorta strips” value amounted to 2 nM.

For another assay the target is unchanged. Kind of assay: cell-based or functional assay.
Conditions: not given
This is another data set of the same source.
On to [Phe(4-F)][dC][3Pal][dW]K[Tle]C[Nal]-NH2 (disulfide 2-7 (inferred)) [4Fpa-D-Cys-Pal-D-Trp-Lys-Tle-Cys-Nal-NH2 (SEQ ID NO: 8)], for which the “IC50 (nM) against U-II Stimulation of Rat Aorta Phasic Contractions” value was 100 nM.
The same measure, in the same setting: as for B1, the figure is 12 nM; as for [Nal][dC]H[dW]KVC[dDip]-NH2 (disulfide 2-7 (inferred)) [Nal-D-Cys-His-D-Trp-Lys-Val-Cys-D-Dip-NH2 (SEQ ID NO: 6)], 1800 nM.
On the same count and under the same terms, as for [Phe(4-Cl)][dC][3Pal][dW]K[Tle]C[Nal]-NH2 (disulfide 2-7 (inferred)) [Cpa-D-Cys-Pal-D-Trp-Lys-Tie-Cys-Nal-NH2 (SEQ ID NO: 10)], the figure is 10 nM; as for [Phe(4-F)][dC][3Pal][dW]KVC[Nal]-NH2 (disulfide 2-7 (inferred)) [4Fpa-D-Cys-Pal-D-Trp-Lys-Val-Cys-Nal-NH2 (SEQ ID NO: 7)], 1090 nM.
Same read-out and setting: as for [Phe(4-Cl)][dC][3Pal]WKTC[Phe(4-Cl)]-NH2 (disulfide 2-7 (inferred)) [Cpa-D-Cys-Pal-Trp-Lys-Thr-Cys-Cpa-NH2 (SEQ ID NO: 11)], the figure is 2 nM.

Another assay deals with U-II Stimulation of Rat Aorta Phasic Contractions.
Experiment: not given
Conditions: not given
The method, then: Example 2: Use of Rat Aorta Circular Strip for Assay U-II Antagonists
Male Sprague-Dawley rats (250-350 g), which had been quarantined for 5-7 days prior to the experiments, were sacrificed by decapitation (experiments were approved by the Advisory Committee For Animal Resources, Tulane University School of Medicine). The thoracic aorta was dissected, freed from connective tissue, and cut into rings of about 1.5 mm in width. The rings were suspended in a 15 ml organ bath containing high potassium Kreb's solution (9.15 g/L potassium chloride, 2.1 g/L sodium bicarbonate, 1.0 g/L glucose, 0.16 g/L potassium phosphate monobasic. 0.14 g/L magnesium sulfate (anhydr.), and 0.22 g/L calcium chloride (dihydr.))
Optimal tension was applied (0.2 g) to the tissues and the bath medium was maintained at 37°C and bubbled with a mixture of 95% O2/5% CO2. Prior to mounting in the organ bath, selected preparations were rubbed with a moistened cotton wool swab, in order to remove the endothelial cell layer, and the effect of this procedure was tested using an acetylcholine-relaxation test. (Gibson, A., Br. J. Pharmacol. 91:205 (1987)). The aorta rings were allowed to equilibrate for 90 min. at the optimal tensions. During the equilibration period, the bath solution was replaced every 15 min. Contractile responses of aortae rings to various concentrations of peptides were expressed in volts. Changes in arterial smooth muscle tension were recorded isometrically using a force-displacement transducer (Radnoti), and a AcqKnowledge ACK100 Version 3.2 (BIOPAC Systems, Inc., Santa Barbara, CA.)
In siliconized glass tubes, peptides were dissolved in dionized water at a concentration of 1 µg/1µL (stock solution) and then diluted 1:10 with sterile BSA-saline solution (0.1% BSA, fraction V, Sigma, St. Louis in 0.9% NaCl). All peptide solutions were prepared fresh directly before the experiments. Peptides in the concentration ranges of 10^-6 to 10^-12 M/L in a final volume of 16-80 µL were direcly introduced into the tested organ bath containing Krebs buffer continuously gassed with 95% O, and 5% CO2, and the aorta rings at an optimal resting tension (1 - 0.2g). Peptide-induced changes in tension of the aorta rings were recorded by force-displacement transducers and processed by the computer system BIOPAC Inc., as described above. Each ring was exposed to one peptide concentration only.
Various somatostatin (SRIF) antagonists were discovered to have the ability to block UII-induced phase contractions in the circular rat thoracic aorta strips. […] The polypeptide Cpa-c[D-Cys-Phe-Trp-Lys-Thr-Cys]-ValNH2 was also a strong U-II antagonist with an IC50 of 2nM. Table 1. SRIF Antagonist IC50s (nM) against U-II Stimulation of Rat Aorta Phasic Contractions
Regarding `CC(C)(C)[C@@H]1NC(=O)[C@H](CCCCN)NC(=O)[C@@H](Cc2c[nH]c3ccccc23)NC(=O)[C@H](Cc2cccnc2)NC(=O)[C@H](NC(=O)[C@@H](N)Cc2ccc(F)cc2)CSSC[C@@H](C(=O)N[C@@H](Cc2ccc3ccccc3c2)C(N)=O)NC1=O` [4Fpa-D-Cys-Pal-D-Trp-Lys-Tle-Cys-Nal-NH2] (H-[Phe(4-F)][dC][3Pal][dW]K[Tle]C[2Nal]-NH2; disulfide 2-7; N-terminus assumed), the midpoint of inhibition, the IC50, lay at 100 nM.
The same measure, in the same setting: as for `CC(C)(C)[C@@H]1NC(=O)[C@H](CCCCN)NC(=O)[C@@H](Cc2c[nH]c3ccccc23)NC(=O)[C@H](Cc2cccnc2)NC(=O)[C@H](NC(=O)[C@@H](N)Cc2ccc(Cl)cc2)CSSC[C@@H](C(=O)N[C@@H](Cc2ccc3ccccc3c2)C(N)=O)NC1=O` [Cpa-D-Cys-Pal-D-Trp-Lys-Tie-Cys-Nal-NH2] (H-[Phe(4-Cl)][dC][3Pal][dW]K[Tle]C[2Nal]-NH2; disulfide 2-7; N-terminus assumed), the figure is 10 nM.
`C[C@@H](O)[C@@H]1NC(=O)[C@H](CCCCN)NC(=O)[C@@H](Cc2c[nH]c3ccccc23)NC(=O)[C@H](Cc2ccc(O)cc2)NC(=O)[C@H](NC(=O)[C@@H](N)Cc2ccc(Cl)cc2)CSSC[C@@H](C(=O)N[C@@H](Cc2ccc3ccccc3c2)C(N)=O)NC1=O` [Cpa-D-Cys-Tyr-D-Trp-Lys-Thr-Cys-Nal-NH2] (H-[Phe(4-Cl)][dC]Y[dW]KTC[2Nal]-NH2; disulfide 2-7; N-terminus assumed) showed an IC50 of 12 nM.
The molecule `CC(C)[C@@H]1NC(=O)[C@H](CCCCN)NC(=O)[C@@H](Cc2c[nH]c3ccccc23)NC(=O)[C@H](Cc2c[nH]cn2)NC(=O)[C@H](NC(=O)[C@@H](N)Cc2ccc3ccccc3c2)CSSC[C@@H](C(=O)N[C@@H](C(N)=O)C(c2ccccc2)c2ccccc2)NC1=O` [Nal-D-Cys-His-D-Trp-Lys-Val-Cys-D-Dip-NH2] (H-[2Nal][dC]H[dW]KVC[dDip]-NH2; disulfide 2-7; N-terminus assumed) had an IC50 of 1800 nM.
Still for that read-out and setting: as for `C[C@@H](O)[C@@H]1NC(=O)[C@H](CCCCN)NC(=O)[C@H](Cc2c[nH]c3ccccc23)NC(=O)[C@H](Cc2cccnc2)NC(=O)[C@H](NC(=O)[C@@H](N)Cc2ccc(Cl)cc2)CSSC[C@@H](C(=O)N[C@@H](Cc2ccc(Cl)cc2)C(N)=O)NC1=O` [Cpa-D-Cys-Pal-Trp-Lys-Thr-Cys-Cpa-NH2], the figure is 2 nM; as for `CC(C)[C@@H]1NC(=O)[C@H](CCCCN)NC(=O)[C@@H](Cc2c[nH]c3ccccc23)NC(=O)[C@H](Cc2cccnc2)NC(=O)[C@H](NC(=O)[C@@H](N)Cc2ccc(F)cc2)CSSC[C@@H](C(=O)N[C@@H](Cc2ccc3ccccc3c2)C(N)=O)NC1=O` [4Fpa-D-Cys-Pal-D-Trp-Lys-Val-Cys-Nal-NH2] (H-[Phe(4-F)][dC][3Pal][dW]KVC[2Nal]-NH2; disulfide 2-7; N-terminus assumed), 1090 nM; as for `CC(C)[C@@H]1NC(=O)[C@H](CCCCN)NC(=O)[C@@H](Cc2c[nH]c3ccccc23)NC(=O)[C@H](Cc2cccnc2)NC(=O)[C@H](NC(=O)[C@@H](N)Cc2ccc(Cl)cc2)CSSC[C@@H](C(=O)N[C@@H](Cc2ccc(Cl)cc2)C(N)=O)NC1=O` [Cpa-c[D-Cys-Pal-D-Trp-Lys-Val-Cys]-Cpa-amide] (H-[Phe(4-Cl)][dC][3Pal][dW]KVC[Phe(4-Cl)]-NH2; disulfide 2-7), around 100 nM.

The next assay concerns the target T2, U-II receptors. Kind of assay: Binding to U-II receptors (rat aorta tissue). The conditions noted are these: unit inferred.
In turn, `CC(C)[C@@H]1NC(=O)[C@H](CCCCN)NC(=O)[C@@H](Cc2c[nH]c3ccccc23)NC(=O)[C@H](Cc2cccnc2)NC(=O)[C@H](NC(=O)[C@@H](N)Cc2ccc(Cl)cc2)CSSC[C@@H](C(=O)N[C@@H](Cc2ccc(Cl)cc2)C(N)=O)NC1=O` [Cpa-c[D-Cys-Pal-D-Trp-Lys-Val-Cys]-Cpa-amide] (H-[Phe(4-Cl)][dC][3Pal][dW]KVC[Phe(4-Cl)]-NH2; disulfide 2-7) gave a Kd of 240 nM. That is a sub-micromolar value.

The IC50 is the concentration at which inhibition is half-maximal. Usually Kd stands for the constant that tells how readily two partners part at equilibrium. Higher therefore signals a looser complex.
